Measurements as given in patent US20200199241A1 (Chugai, published 2020).

T1: FcγRIIa type R (human, UniProt P12318 36-217)
T1 construct: SPR analyte; also called FcγRIIaR; FcγRIIa(R)
T1 chain: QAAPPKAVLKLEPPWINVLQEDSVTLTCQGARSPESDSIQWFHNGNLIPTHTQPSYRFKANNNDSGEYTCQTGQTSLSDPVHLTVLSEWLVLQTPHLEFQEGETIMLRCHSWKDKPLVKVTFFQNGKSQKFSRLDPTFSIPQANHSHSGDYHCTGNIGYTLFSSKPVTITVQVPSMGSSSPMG

T2: FcγRIIa type H (human, UniProt P12318 36-217)
T2 construct: SPR analyte; also called FcγRIIaH
T2 sequence: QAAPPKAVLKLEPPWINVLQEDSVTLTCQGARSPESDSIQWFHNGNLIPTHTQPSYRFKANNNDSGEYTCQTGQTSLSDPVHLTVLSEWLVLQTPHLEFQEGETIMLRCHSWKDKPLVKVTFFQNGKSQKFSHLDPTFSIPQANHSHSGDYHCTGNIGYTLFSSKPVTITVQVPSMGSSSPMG

T3: FcγRIIb (human, UniProt P31994 43-217, limits assumed)
T3 construct: SPR analyte; also called FcγIIB; CD32
T3 sequence: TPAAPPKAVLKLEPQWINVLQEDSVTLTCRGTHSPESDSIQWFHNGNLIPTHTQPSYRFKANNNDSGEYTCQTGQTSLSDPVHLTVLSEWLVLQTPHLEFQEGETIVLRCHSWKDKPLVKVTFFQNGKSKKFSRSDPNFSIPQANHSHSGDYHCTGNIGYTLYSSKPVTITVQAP


Experiments:
FcγRIIa type R = molecular target: T1, FcγRIIa type R; assay: SPR (Biacore), antibody captured, FcγR analyte
FcγRIIIa type V = molecular target: T4, FcγRIIIa type V (human, UniProt P08637 17-208, limits assumed); assay: SPR (Biacore), antibody captured, FcγR analyte
T4 construct: SPR analyte; allotype V158 was used here; also called FcγRIIIaV; FcγRIIIa(V)
T4 sequence (P08637 other isoform, or with tags, fused parts or gaps limits assumed): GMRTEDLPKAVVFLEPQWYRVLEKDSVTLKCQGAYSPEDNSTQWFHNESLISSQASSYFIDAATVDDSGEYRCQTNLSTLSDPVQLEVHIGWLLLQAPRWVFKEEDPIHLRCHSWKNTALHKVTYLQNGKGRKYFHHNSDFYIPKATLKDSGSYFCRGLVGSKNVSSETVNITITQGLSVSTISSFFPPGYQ

FcγRIIa type H = molecular target: T2, FcγRIIa type H; assay: SPR (Biacore), antibody captured, FcγR analyte
FcγRIIb [1] = molecular target: T3, FcγRIIb; assay: SPR (Biacore), antibody captured, FcγR analyte
FcγRIa = molecular target: T5, FcγRIa (human, UniProt P12314 16-292, limits assumed); assay: SPR (Biacore), antibody captured, FcγR analyte
T5 construct: SPR analyte; also called CD64
T5 sequence (P12314 16-292 limits assumed): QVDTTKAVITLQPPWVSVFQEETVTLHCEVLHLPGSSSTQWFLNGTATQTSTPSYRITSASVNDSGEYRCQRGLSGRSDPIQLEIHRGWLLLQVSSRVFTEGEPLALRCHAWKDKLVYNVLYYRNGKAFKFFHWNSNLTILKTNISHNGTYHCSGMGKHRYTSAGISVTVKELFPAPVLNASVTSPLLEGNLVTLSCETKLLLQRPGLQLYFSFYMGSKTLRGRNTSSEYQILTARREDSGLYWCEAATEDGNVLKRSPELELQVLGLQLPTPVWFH

FcγRIIb [2] = molecular target: T3, FcγRIIb; assay: ratio of SPR KDs; reference IL6R-B3/IL6R-L

| Binder | Kd (FcγRIIa type R) | Kd (FcγRIIIa type V) | Kd (FcγRIIa type H) | Kd (FcγRIIb [1]) | Kd (FcγRIa) | KD(IIb) of the parent polypeptide/KD(IIb) of altered polypeptide (FcγRIIb [2]) |
| --- | --- | --- | --- | --- | --- | --- |
| IL6R-BP144/IL6R-L (antibody, human IgG1) heavy: QVQLQESGPGLVKPSETLSLTCAVSGHSISHDHAWSWVRQPPGEGLEWIGFISYSGITNYNPSLQGRVTISRDNSKNTLYLQMNSLRAEDTAVYYCARSLARTTAMDYWGEGTLVTVSSASTKGPSVFPLAPSSKSTSGGTAALGCLVKDYFPEPVTVSWNSGALTSGVHTFPAVLQSSGLYSLSSVVTVPSSSLGTQTYICNVNHKPSNTKVDKKVEPKSCDKTHTCPPCPAPELLGDDSVFLFPPKPKDTLMISRTPEVTCVVVDVSHEDPEVKFNWYVDGVEVHNAKTKPREEQYNSTYRVVSVLTVLHQDWLNGKEYKCKVSNAALPAPIEKTISKAKGQPREPQVYTLPPSRDELTKNQVSLTCLVKGFYPSDIAVEWESNGQPENNYKTTPPVLDSDGSFFLYSKLTVDKSRWQQGNVFSCSVMHEALHNHYTQESLSLSP light: DIQMTQSPSSLSASVGDRVTITCRASQDISSYLNWYQQKPGKAPKLLIYYTSRLHSGVPSRFSGSGSGTDFTFTISSLQPEDIATYYCQQGNTLPYTFGQGTKVEIK | 6.9 µM | 55 µM | 36 µM | 0.79 µM | 0.037 µM | 3.9 |
| IL6R-BP129/IL6R-L (antibody, human IgG1) heavy: QVQLQESGPGLVKPSETLSLTCAVSGHSISHDHAWSWVRQPPGEGLEWIGFISYSGITNYNPSLQGRVTISRDNSKNTLYLQMNSLRAEDTAVYYCARSLARTTAMDYWGEGTLVTVSSASTKGPSVFPLAPSSKSTSGGTAALGCLVKDYFPEPVTVSWNSGALTSGVHTFPAVLQSSGLYSLSSVVTVPSSSLGTQTYICNVNHKPSNTKVDKKVEPKSCDKTHTCPPCPAPDLLGGDSVFLFPPKPKDTLMISRTPEVTCVVVDVSHEDPEVKFNWYVDGVEVHNAKTKPREEQDNSTYRVVSVLTVLHQDWLNGKEYKCKVSNKALPKPIEKTISKAKGQPREPQVYTLPPSRDELTKNQVSLTCLVKGFYPSDIAVEWESNGQPENNYKTTPPVLDSDGSFFLYSKLTVDKSRWQQGNVFSCSVMHEALHNHYTQESLSLSP light: DIQMTQSPSSLSASVGDRVTITCRASQDISSYLNWYQQKPGKAPKLLIYYTSRLHSGVPSRFSGSGSGTDFTFTISSLQPEDIATYYCQQGNTLPYTFGQGTKVEIK | 15 µM | 75 µM | 40 µM | 0.52 µM | 0.025 µM | 6 |
| IL6R-BP089/IL6R-L (antibody, human IgG1) heavy: QVQLQESGPGLVKPSETLSLTCAVSGHSISHDHAWSWVRQPPGEGLEWIGFISYSGITNYNPSLQGRVTISRDNSKNTLYLQMNSLRAEDTAVYYCARSLARTTAMDYWGEGTLVTVSSASTKGPSVFPLAPSSKSTSGGTAALGCLVKDYFPEPVTVSWNSGALTSGVHTFPAVLQSSGLYSLSSVVTVPSSSLGTQTYICNVNHKPSNTKVDKKVEPKSCDKTHTCPPCPAPEYLGGDSVFLFPPKPKDTLMISRTPEVTCVVVDVSHEDPEVKFNWYVDGVEVHNAKTKPREEQYNSTYRVVSVLTVLHQDWLNGKEYKCKVSNAALPKPIEKTISKAKGQPREPQVYTLPPSRDELTKNQVSLTCLVKGFYPSDIAVEWESNGQPENNYKTTPPVLDSDGSFFLYSKLTVDKSRWQQGNVFSCSVMHEALHNHYTQESLSLSP light: DIQMTQSPSSLSASVGDRVTITCRASQDISSYLNWYQQKPGKAPKLLIYYTSRLHSGVPSRFSGSGSGTDFTFTISSLQPEDIATYYCQQGNTLPYTFGQGTKVEIK | 6.4 µM | 51 µM | 20 µM | 0.39 µM | 0.063 µM | 8 |

The remaining binders from weak to strong by Kd (FcγRIIa type R), led by results:

| Kd (FcγRIIa type R) | Kd (FcγRIIIa type V) | Kd (FcγRIIa type H) | Kd (FcγRIIb [1]) | Kd (FcγRIa) | KD(IIb) of the parent polypeptide/KD(IIb) of altered polypeptide (FcγRIIb [2]) | Binder |
| --- | --- | --- | --- | --- | --- | --- |
| 8 µM | 58 µM | 30 µM | 0.37 µM | 0.015 µM | 8.4 | IL6R-BP132/IL6R-L (antibody, human IgG1) heavy: QVQLQESGPGLVKPSETLSLTCAVSGHSISHDHAWSWVRQPPGEGLEWIGFISYSGITNYNPSLQGRVTISRDNSKNTLYLQMNSLRAEDTAVYYCARSLARTTAMDYWGEGTLVTVSSASTKGPSVFPLAPSSKSTSGGTAALGCLVKDYFPEPVTVSWNSGALTSGVHTFPAVLQSSGLYSLSSVVTVPSSSLGTQTYICNVNHKPSNTKVDKKVEPKSCDKTHTCPPCPAPDLLGGDSVFLFPPKPKDTLMISRTPEVTCVVVDVSHEDPEVKFNWYVDGVEVHNAKTKPREEQYNSTYRVVSVLTVLHQDWLNGKEYKCKVSNAALPKPIEKTISKAKGQPREPQVYTLPPSRDELTKNQVSLTCLVKGFYPSDIAVEWESNGQPENNYKTTPPVLDSDGSFFLYSKLTVDKSRWQQGNVFSCSVMHEALHNHYTQESLSLSP light: DIQMTQSPSSLSASVGDRVTITCRASQDISSYLNWYQQKPGKAPKLLIYYTSRLHSGVPSRFSGSGSGTDFTFTISSLQPEDIATYYCQQGNTLPYTFGQGTKVEIK |
| 4.2 µM | 68 µM | 24 µM | 0.32 µM | 0.29 µM | 9.6 | IL6R-BP085/IL6R-L (antibody, human IgG1) heavy: QVQLQESGPGLVKPSETLSLTCAVSGHSISHDHAWSWVRQPPGEGLEWIGFISYSGITNYNPSLQGRVTISRDNSKNTLYLQMNSLRAEDTAVYYCARSLARTTAMDYWGEGTLVTVSSASTKGPSVFPLAPSSKSTSGGTAALGCLVKDYFPEPVTVSWNSGALTSGVHTFPAVLQSSGLYSLSSVVTVPSSSLGTQTYICNVNHKPSNTKVDKKVEPKSCDKTHTCPPCPAPELLGDDSVFLFPPKPKDTLMISRTPEVTCVVVDVSHEDPEVKFNWYVDGVEVHNAKTKPREEQYNSTYRVVSVLTVLHQDWLNGKEYKCKVSNKALPKPIEKTISKAKGQPREPQVYTLPPSRDELTKNQVSLTCLVKGFYPSDIAVEWESNGQPENNYKTTPPVLDSDGSFFLYSKLTVDKSRWQQGNVFSCSVMHEALHNHYTQESLSLSP light: DIQMTQSPSSLSASVGDRVTITCRASQDISSYLNWYQQKPGKAPKLLIYYTSRLHSGVPSRFSGSGSGTDFTFTISSLQPEDIATYYCQQGNTLPYTFGQGTKVEIK |
| 2.9 µM | 57 µM | 23 µM | 0.22 µM | 0.39 µM | 14.3 | IL6R-BP088/IL6R-L (antibody, human IgG1) heavy: QVQLQESGPGLVKPSETLSLTCAVSGHSISHDHAWSWVRQPPGEGLEWIGFISYSGITNYNPSLQGRVTISRDNSKNTLYLQMNSLRAEDTAVYYCARSLARTTAMDYWGEGTLVTVSSASTKGPSVFPLAPSSKSTSGGTAALGCLVKDYFPEPVTVSWNSGALTSGVHTFPAVLQSSGLYSLSSVVTVPSSSLGTQTYICNVNHKPSNTKVDKKVEPKSCDKTHTCPPCPAPELLGDDSVFLFPPKPKDTLMISRTPEVTCVVVDVSHEDPEVKFNWYVDGVEVHNAKTKPREEQYNSTYRVVSVLTVLHQDWLNGKEYKCKVSNAALPKPIEKTISKAKGQPREPQVYTLPPSRDELTKNQVSLTCLVKGFYPSDIAVEWESNGQPENNYKTTPPVLDSDGSFFLYSKLTVDKSRWQQGNVFSCSVMHEALHNHYTQESLSLSP light: DIQMTQSPSSLSASVGDRVTITCRASQDISSYLNWYQQKPGKAPKLLIYYTSRLHSGVPSRFSGSGSGTDFTFTISSLQPEDIATYYCQQGNTLPYTFGQGTKVEIK |
